No end group written: not given here.
Experiments:
Assay in all cases: Kinase Profiling Assay
Type in all cases: biochemical
Conditions in all cases: peptide 100 μM
PKCγ(h) = PKCγ(h) (Homo sapiens, UniProt P05129)
Method in brief: (§1)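 Radiometric filter-binding format: cationic substrate takes up labeled phosphate from ATP unless the inhibitor peptide blocks the kinase. Substrate bound to an anionic filter, scintillation-counted, normalized to 100% activity control. Duplicates; part of a 266-kinase selectivity panel for MK2 peptides.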

Hck(h) = biological target: T1, Hck(h) (Homo sapiens, UniProt P08631)
T1 construct: purchased Millipore
T1 sequence (P08631 whole entry): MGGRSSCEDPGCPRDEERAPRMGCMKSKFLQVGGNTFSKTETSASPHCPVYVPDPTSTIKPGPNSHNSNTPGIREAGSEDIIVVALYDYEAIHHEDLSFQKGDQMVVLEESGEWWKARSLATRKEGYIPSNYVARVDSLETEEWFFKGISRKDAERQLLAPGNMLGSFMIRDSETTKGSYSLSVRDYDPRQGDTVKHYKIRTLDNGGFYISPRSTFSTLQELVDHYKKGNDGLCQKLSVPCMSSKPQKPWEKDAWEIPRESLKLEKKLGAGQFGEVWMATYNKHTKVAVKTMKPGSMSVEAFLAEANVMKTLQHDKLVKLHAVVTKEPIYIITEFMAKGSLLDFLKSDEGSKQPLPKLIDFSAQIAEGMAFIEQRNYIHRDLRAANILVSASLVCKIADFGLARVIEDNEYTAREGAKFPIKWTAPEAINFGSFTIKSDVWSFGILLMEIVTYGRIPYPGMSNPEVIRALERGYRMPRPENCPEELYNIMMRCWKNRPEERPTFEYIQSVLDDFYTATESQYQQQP
Method in brief: as §1

TAO2(h) = biological target: T2, TAO2(h) (Homo sapiens, UniProt Q9UL54)
T2 construct: purchased Millipore
T2 sequence (Q9UL54 1-1235): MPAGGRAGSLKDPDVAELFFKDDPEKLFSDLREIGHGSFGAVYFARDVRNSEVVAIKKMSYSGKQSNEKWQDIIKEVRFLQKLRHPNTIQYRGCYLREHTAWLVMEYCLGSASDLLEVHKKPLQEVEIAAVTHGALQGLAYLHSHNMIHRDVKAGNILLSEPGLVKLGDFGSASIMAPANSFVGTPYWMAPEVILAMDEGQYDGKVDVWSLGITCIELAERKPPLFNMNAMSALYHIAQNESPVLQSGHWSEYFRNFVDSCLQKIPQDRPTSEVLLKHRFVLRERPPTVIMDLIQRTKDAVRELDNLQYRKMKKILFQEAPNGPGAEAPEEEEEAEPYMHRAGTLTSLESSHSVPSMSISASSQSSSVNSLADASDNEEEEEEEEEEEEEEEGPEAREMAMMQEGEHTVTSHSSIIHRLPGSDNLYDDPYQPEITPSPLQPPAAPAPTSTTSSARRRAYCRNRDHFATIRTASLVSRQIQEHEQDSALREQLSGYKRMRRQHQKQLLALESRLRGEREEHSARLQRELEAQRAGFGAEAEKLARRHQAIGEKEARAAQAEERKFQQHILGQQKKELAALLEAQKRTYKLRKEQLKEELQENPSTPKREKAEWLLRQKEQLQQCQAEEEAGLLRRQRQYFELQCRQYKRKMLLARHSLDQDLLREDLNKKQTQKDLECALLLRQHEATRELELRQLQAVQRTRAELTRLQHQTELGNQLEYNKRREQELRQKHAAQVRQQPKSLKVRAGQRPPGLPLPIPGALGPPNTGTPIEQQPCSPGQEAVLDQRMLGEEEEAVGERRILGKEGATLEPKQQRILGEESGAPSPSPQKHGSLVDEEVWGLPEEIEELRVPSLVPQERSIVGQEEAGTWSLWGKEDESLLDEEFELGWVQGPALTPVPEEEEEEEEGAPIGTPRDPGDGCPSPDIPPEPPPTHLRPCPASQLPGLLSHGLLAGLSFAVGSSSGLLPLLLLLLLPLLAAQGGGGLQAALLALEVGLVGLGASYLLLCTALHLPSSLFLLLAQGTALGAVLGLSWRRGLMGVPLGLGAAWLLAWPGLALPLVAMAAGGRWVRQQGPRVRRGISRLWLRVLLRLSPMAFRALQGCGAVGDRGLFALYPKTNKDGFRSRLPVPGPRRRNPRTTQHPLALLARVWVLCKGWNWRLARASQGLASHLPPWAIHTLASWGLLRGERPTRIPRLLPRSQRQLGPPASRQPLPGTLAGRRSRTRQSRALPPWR
Method in brief: as §1

CaMKIIδ(h) = CaMKIIδ(h) (Homo sapiens, UniProt Q13557)
Chain of CaMKIIδ(h) (Q13557 whole entry): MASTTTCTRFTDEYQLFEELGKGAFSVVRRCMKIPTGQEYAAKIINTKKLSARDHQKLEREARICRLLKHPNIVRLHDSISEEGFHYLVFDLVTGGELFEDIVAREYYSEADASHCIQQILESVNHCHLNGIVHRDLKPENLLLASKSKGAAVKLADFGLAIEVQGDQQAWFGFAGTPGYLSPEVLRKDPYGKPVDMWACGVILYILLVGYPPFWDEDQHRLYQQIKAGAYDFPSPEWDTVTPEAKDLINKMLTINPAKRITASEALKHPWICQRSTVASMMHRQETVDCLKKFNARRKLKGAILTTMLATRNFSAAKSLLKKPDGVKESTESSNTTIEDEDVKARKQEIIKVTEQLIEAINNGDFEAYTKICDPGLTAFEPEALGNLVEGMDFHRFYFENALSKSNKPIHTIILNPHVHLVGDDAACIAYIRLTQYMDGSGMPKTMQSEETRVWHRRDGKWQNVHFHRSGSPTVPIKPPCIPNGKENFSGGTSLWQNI
Method in brief: as §1

MSSK1(h) = biological target: T3, MSSK1(h) (Homo sapiens, UniProt Q9UPE1)
T3 construct: purchased Millipore
T3 sequence (Q9UPE1 whole entry): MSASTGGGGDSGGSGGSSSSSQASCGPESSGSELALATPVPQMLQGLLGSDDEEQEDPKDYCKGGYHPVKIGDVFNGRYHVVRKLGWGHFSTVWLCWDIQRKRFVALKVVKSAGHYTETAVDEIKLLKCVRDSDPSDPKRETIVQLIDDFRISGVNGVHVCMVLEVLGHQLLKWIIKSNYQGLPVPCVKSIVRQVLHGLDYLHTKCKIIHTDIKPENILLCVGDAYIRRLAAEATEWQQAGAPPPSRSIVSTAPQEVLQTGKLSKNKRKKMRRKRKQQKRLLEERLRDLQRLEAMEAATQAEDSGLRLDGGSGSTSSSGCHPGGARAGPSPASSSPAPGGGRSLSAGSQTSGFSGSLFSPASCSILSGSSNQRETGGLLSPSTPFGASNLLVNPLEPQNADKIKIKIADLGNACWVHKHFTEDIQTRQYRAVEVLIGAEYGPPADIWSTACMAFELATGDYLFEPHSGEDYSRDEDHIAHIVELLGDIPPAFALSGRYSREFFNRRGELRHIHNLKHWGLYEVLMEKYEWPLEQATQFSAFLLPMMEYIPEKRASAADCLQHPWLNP
Method in brief: as §1

CDK5/p35(h) = CDK5/p35(h) (Homo sapiens, UniProt Q00535)
Chain of CDK5/p35(h) (Q00535 whole entry): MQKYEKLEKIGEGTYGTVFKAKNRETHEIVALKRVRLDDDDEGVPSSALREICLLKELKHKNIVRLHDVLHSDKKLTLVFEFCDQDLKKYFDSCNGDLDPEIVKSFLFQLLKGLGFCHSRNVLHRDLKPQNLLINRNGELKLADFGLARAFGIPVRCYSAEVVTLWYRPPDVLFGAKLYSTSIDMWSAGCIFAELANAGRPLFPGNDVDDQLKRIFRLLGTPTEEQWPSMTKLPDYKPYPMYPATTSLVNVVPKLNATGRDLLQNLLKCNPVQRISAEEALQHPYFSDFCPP
Chain of CDK5/p35(h) (Q15078 whole entry partner): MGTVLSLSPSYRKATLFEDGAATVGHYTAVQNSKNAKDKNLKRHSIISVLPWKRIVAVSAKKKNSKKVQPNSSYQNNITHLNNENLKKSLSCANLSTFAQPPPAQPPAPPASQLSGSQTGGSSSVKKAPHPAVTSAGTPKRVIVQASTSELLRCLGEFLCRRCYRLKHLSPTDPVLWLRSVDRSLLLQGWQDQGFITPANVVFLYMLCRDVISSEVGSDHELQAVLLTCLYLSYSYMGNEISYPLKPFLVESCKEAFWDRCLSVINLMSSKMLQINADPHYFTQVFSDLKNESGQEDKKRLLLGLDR
Method in brief: as §1

Met(Y1248C)(h) = biological target: T4, Met(Y1248C)(h) (Homo sapiens, UniProt P08581, Y1230C)
T4 construct: purchased Millipore
Method in brief: as §1

Sequence	% activity (PKCγ(h))	% activity (Hck(h))	% activity (TAO2(h))	% activity (CaMKIIδ(h))	% activity (MSSK1(h))	% activity (CDK5/p35(h))	% activity (Met(Y1248C)(h))
KAFAKLAARLYRKALARQLGVAA [MMI-0400]	79%	72%	74%	2%	75%	76%	36%
FAKLAARLYRKALARQLGVAA [MMI-0300]	89%	72%	70%	1%	77%	79%	84%
YARAAARQARAKALARQLGVAA [MMI-0100]	–	–	95%	–	82%	–	77%
HRRIKAWLKKIKALARQLGVAA (Mammal) [MMI-0500]	6%	78%	15%	1%	22%	59%	73%
YARAAARQARAKALNRQLGVA (Mammal) [MMI-0200]	101%	–	93%	2%	100%	92%	141%

Source: patent US20150258192A1, “COMPOSITIONS AND METHODS FOR PREVENTING OR TREATING CHRONIC LUNG ALLOGRAFT DYSFUNCTION (CLAD) AND IDIOPATHIC PULMONARY FIBROSIS (IPF)” (priority 2014, published 2015)
